Measurements as given in US20100261252A1.

Molecular target: human IgA1 (human) (UniProt P01876)
Experiment: cell-based or functional assay

Chain of UniProt P01876 (P01876 other isoform, or with tags, fused parts or gaps): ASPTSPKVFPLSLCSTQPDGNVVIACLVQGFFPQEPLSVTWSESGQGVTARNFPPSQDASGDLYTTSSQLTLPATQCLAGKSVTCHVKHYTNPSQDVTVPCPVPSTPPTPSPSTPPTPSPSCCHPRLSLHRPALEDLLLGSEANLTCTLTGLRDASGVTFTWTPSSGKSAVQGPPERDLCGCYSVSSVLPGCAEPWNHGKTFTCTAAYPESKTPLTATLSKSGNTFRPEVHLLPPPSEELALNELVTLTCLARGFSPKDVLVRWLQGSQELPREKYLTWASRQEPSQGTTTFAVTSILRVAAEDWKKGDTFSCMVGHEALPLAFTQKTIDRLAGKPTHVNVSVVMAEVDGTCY

C-terminal His-tagged H. influenzae IgA1 protease (proteolytic protease domain, lacking the α protein and β-core domains) (from UniProt P44969 26-1014) (enzyme)
human IgA1 cleavage activity of purified refolded IgA1 protease (Experion automated electrophoresis) (ng IgA1/uL/min/ng protease): 50
